Experimental data from the nanobody polyreactivity screen of Harvey et al. (2022).

Assay: yeast display, Sf9 membrane polyspecificity reagent, FACS + sequencing; frameworks hold sequencing errors
How it was run: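 Genes from sorted yeast were amplified by colony PCR, read by MiSeq 2 × 250 sequencing and filtered on CDR length. These cells carried a synthetic nanobody library in Saccharomyces cerevisiae BJ5465 and were sorted by FACS into low and high (top ~1%) gates on anti-HA and streptavidin fluorescence. Polyreactivity is labelled according to the gate of origin.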

| Sequence | polyreactivity (PSR sort gate) |
| --- | --- |
| QVQLVESGGGLVQAGASLRLSCAASGSISKSYAMGWYRQAPGKERELVAAMSWRGGSTYADSVKGRFTISRDNAKNTVYLLMNCLKPEDSAVYYCAATNYGTFWGGQSERYDYWGQGTQVTVSS | low polyreactivity |
| QVQLVESGGGLVQAGASLRLSCAASGSTFDYYAMGWSRQAPGKELELVDAISRGGSTNYADSVKGRFTISRDNAKNSVYLQMNILKPEDTAVYYCAAAPTYRWHDGYWGQGTQVTVSS | low polyreactivity |
| QVQLVESGGGLVQAGASLRLSCAPSASIFSYNAMGWYSQAPGKERELVAAIDWSGGSTYYADSVKGRFTISRDNAKNTVYLQMNSLKPEDTEVYYCNAVGVFYYSYHYHQSDYWGQGTQVTVSS | low polyreactivity |
| QVQLVESGGGLVQAGASLRLSCAPSGSTFYPNSMAWYRQSPGKERHLVDAITSGGSTYYADSVKGRFTISRDNSKNTVYLQMNSLKPEDTAVYYCAAQRRYHQDTTIAPGNYYYWGQGTQVTVSS | low polyreactivity |
| QVQLVESGGGLVQAGASLRLSCASSGSISKSYAMGWYRQAPGKERELVAAISWRGGSTYADSVKGRFTISRDNAKNTVYLQMNSLKPVDTAVYYCAATNYGTFWVGQSERYDYWGQGTEVTVSS | low polyreactivity |
| QVQLVESGGGLVQAGASLRLSCPPSGFIFSLYAMGWYSQAPGKERELVADISWGDGTTYYADSVKGRFTISRDNAKNTVYLQMNSLKPEDTAVYYCAADSVSNWYWFNYWGQGTQVTVSS | high polyreactivity |
| QVQLVESGGGLVQAGCNLRISCAASGSTFTLYAMGWYRQAPGKERELVAGITYSGGSTFYADSVKGRFTISRDNAKNTVYLQMKSVKPEDTAVYFCGDVYVPYYWLGRSRGLYYWGQGTQVTVSS | high polyreactivity |
| QVQLVESGGGLVQAGCRLRLSCAASGITFYSYAMGWYRQAPGKERELVAAITLTGGTTYYADSVKGRFTISRDNAKNTVYLQMNSLKPEDTAVSYCAAQYWWWSRFEYDSWGQGTQVTVSS | low polyreactivity |
| QVQLVESGGGLVQAGCSLLLSCAASGRLFSLNAMGWYRQAPGKERELVAAITRSAASTHYADSEKGRFTISRDNAKNTVYLQMNSLKPEDTAVYYCAARFWYDYRHYDYWGQGTEVTVSS | low polyreactivity |
| QVQLVESGGGLVQAGCSLRISCAASGRTFSVYTMGWYRQAPGKERELVAAIRGRGGSTYYADSVKGRFTISRDNAKIPVYLQMNSLKPEDTAVYYCAARASIFGATFDYWGQGTQVTVSS | high polyreactivity |
| QVQLVESGGGLVQAGCSLRISCAASGSTFYPYAMGWYRQAPGKERELVAAISSGGSTYYADSVKGRFTISRDNAKNTVYLQMNSVKPEDTAVYYCAADFYYAYYWGQGTQVTVSS | low polyreactivity |
| QVQLVESGGGLVQAGCSLRLICAASGFTFGRNAMGWYRQAPGKEREFVADISGSVGSTYYADSVKGRFTISRDNAKNTVYLQMNSLKPEDTAVYYCAADTLYTRWEFDYWGQGTLVTVSS | high polyreactivity |
| QVQLVESGGGLVQAGCSLRLICAASGIIFVGYAMGWYRQAPGKDRELVAGINSGGSTNYADSVKGRFTISRDNAKNTVYLQMNSLKPEDTAVYYCAAYPYYYYGYDYWGQGTQVTVSS | low polyreactivity |
| QVQLVESGGGLVQAGCSLRLSCAASGFIFGRYTMGWYRQAPGKERELVAAISGSDVSTYYADSVKGRFTISRDNAKNTVYLQMNSLKPEDTAVYYCNAGPWWYLHEYDYWGQGTQVTVSS | low polyreactivity |
| QVQLVESGGGLVQAGCSLRLSCAASGFIFVRNAMGWYRQAPGKERELVAAISSSGGSTNYADSVKGRFTISRDNAKNTVYLQMNSLKPEDTAVYYCNAQRYYDYWGQGTQVTVSS | high polyreactivity |
| QVQLVESGGGLVQAGCSLRLSCAASGFTFDDYAMGWYRQAPGKERELVAAISWSGGSTYYADSVKGRFTISRDNAKNTVYLQMNSLKPEDTAVYYCAALRTGAQYSTMDYWGQGTQVTVSS | low polyreactivity |
| QVQLVESGGGLVQAGCSLRLSCAASGFTFTTYAMGWYRQSPGKERELVAAISRSTGSTYYADSVKGRFTISRDNAKNTVYLKMNSMKPEDTAVYYCNTVFPNGYLSKYYYWGQGTKVTVSS | high polyreactivity |
| QVQLVESGGGLVQAGCSLRLSCAASGITFVGYAMGWYRQAPGKERELVAAISSSGGSTYYADSVKGRFTISRDNAKNTVYLQMNSLKPEDTAVYYCAKRRWWQKSLYDYWGQGTQVTVSS | high polyreactivity |
| QVQLVESGGGLVQAGCSLRLSCAASGLIFAVYTMGWYRQAPGKERELVAAITRRSTRTYYADSVKGRFTNSRDNAKNTVYLQMNSLKPEDTAVYYCAADRGSSGAAFEYWGQGTQVTVSS | low polyreactivity |
| QVQLVESGGGLVQAGCSLRLSCAASGLIFSKNVMGWYRQAPGKERELVAAISQRGGSTYYADSVKGRFTISRDNAKNTVYLQMNSLKPEDTAVYYCAADNSVSHEDYWGQGTQVTVSS | high polyreactivity |
| QVQLVESGGGLVQAGCSLRLSCAASGLTLRHYAMGWYRQSPGKERELVAAISWNTGSTYYADSVKGRFTISRDNAKNTVYLQMNSLKPEDTAVYYCAAVPRAYYQGLYYWGQCTQVTVSS | high polyreactivity |

| Sequence | polyreactivity (PSR sort gate) |
| --- | --- |
| QVQLVESGGGLVQAGCSLRLSCAASGNTFGYYAMGWYRQAPGKERELVAAITSSGGRTYYADSVKGRFTISRDNAKNTVYLQMNSLKPEDTAVYYCAAGRVGARYPTYRFYYWGQGTLVTVSS | high polyreactivity |
| QVQLVESGGGLVQAGCSLRLSCAASGRIFNWYGMGWYRQAPGKERELVAGITYSASRTYYADSVKGRFTISRDNAKNTVYLQMNSLKPEDTAVYYCAAGRYHRDDGYDYWGQGTQVTVSS | low polyreactivity |
| QVQLVESGGGLVQAGCSLRLSCAASGRIFRRYAMGWYRQAPGKERELVAAITSGGGSTYYADSVKGRFTISRDNAKNTVYLQMNSLKPEDTAVYYCNKSSWEFVKGKYGYWGQGTQVTVSS | low polyreactivity |
| QVQLVESGGGLVQAGCSLRLSCAASGRIFWDNAMGWYRQAPGKERELVAAIDYRGGNTNYADSVKGRFTISRDNAKNTVYLQMNSLKPEDTAVYYCNAEWAVRYPGYDYWGQGTQVTVSS | low polyreactivity |
| QVQLVESGGGLVQAGCSLRLSCAASGRTFARYAMGWSRQAPGKVRELVAGISRSGDSTHYADSVKGRFTISRDNAKNTVYLQMNSRKPEDTSVYYCHKETPTIGARKYEYWGQGTQVTVSS | low polyreactivity |
| QVQLVESGGGLVQAGCSLRLSCAASGRTFDDYAMGWYRQAPGKERELVAAISSRCGSTYYADSVKGRFTISRDNAKNSVYLQMNSLKPEDTAVYYCNTLQSSHGSSQYDSWGQGTQVTVSS | low polyreactivity |
| QVQLVESGGGLVQAGCSLRLSCAASGRTFRYYAMGWYRQAPGKERELVAAISWRGGSTYYADSVKGRFTISRDNAKNTVYLQMNSLKPEDTAVYYCAAGILFGHYDYWGQGTQVTVSS | high polyreactivity |
| QVQLVESGGGLVQAGCSLRLSCAASGRTFSKYTMGWYRQAPGKERELVAAISGSGGSTYYADSVKGRFTISRDNAKNTVYLQMNSLKPEDTAVYYCAAEDEYNWYDDYFYTFDYWGQGTQVTVSS | low polyreactivity |
| QVQLVESGGGLVQAGCSLRLSCAASGSIFDDYAMGWNRQAPGKERELVAAISSSGTSTYYADSVKGRFTISRDNAKNTVYLQMNSLKPEVTAVYYCAARSAILKSGYLMDYWGQGTHVTVSS | low polyreactivity |
| QVQLVESGGGLVQAGCSLRLSCAASGSIFGYNAMGWYRQAPGKERELVAAITGSGGSTYYADSVKGRFTISRDNAKNTVYLQMNSLKPEDTAVYYCADDLFGGPLGYWDYDYWGQGTQVTVSS | low polyreactivity |
| QVQLVESGGGLVQAGCSLRLSCAASGSIFRYYAMGWYRQAPGKERELVAAITSSGGSTYYADSVKGRFTISRDNSKNTVYLQMNSLKPEDTAVYYCNARHVRYSRRENDYWGQGTQVTVSS | high polyreactivity |
| QVQLVESGGGLVQAGCSLRLSCAASGSTFFFNAMGWYRQAPGKERELVAAITGRCGSTYYADSVKGRFTISRDNAKNTVYLQMNSLIPEDTAVYYCAAEGVPYWSSRFWRYDYWGQGTQVTVSS | low polyreactivity |
| QVQLVESGGGLVQAGCSLRLSCAASGSTFGYYTMGWYRQAPGKERELVAAITRSGGSTYYADSVKGRFTISRDNAKNSVYLQMTSLKPEDTAVYYCAADDYWTTFGYWGLGTQVTVSS | low polyreactivity |
| QVQLVESGGGLVQAGCSLRLSCAASGSTFTTNAMGWYRQAPGKEREFVAAITSSGGSTYYADSVKGRFTISRDNAKNTVYLQMNSLKPEDNAVYYCNADGDPSQKLFGRSYDYWGQGTQVNVSS | low polyreactivity |
| QVQLVESGGGLVQAGCSLRLSCAASGSTFTYYAMGWYRQAPGKERESVAAISSNGGSTSYADSVKGRFTISRDNAKNTVYLQMNSLKPEDTAVYYCAARSKRLAHDYWGQGTQVTVSS | high polyreactivity |
| QVQLVESGGGLVQAGCSLRLSCAASGSTFYRYAMGWYRQAPGKERELVAAITSGTGTYYADSVKGRFTISRDNAKNTVYLQMNSLKPEDTAVYYCNARRYLRGYWGQGTQVTVSS | low polyreactivity |
| QVQLVESGGGLVQAGCSLRLSCAASGSTLSFNAMGWYRQAPGKERELVAGITYSGGSTYYADSVKGRFTISRDNAKNTVYLLMNSLKPEDTAFYYCNKACGVYYGHLDYWGQGTQVTVSS | low polyreactivity |
| QVQLVESGGGLVQAGCSLRLSCAASGYNLFAYAMGWYRQSPGKERELVATINTSGGITYYADSVNGRFTISRDIANNTVYLQMNSLKPEDTAVYYCAAADGGGLVTYYYWGQGTQVTVSS | low polyreactivity |
| QVQLVESGGGLVQAGCSLRLSCAATGSFFGFYSMGWYRQAPGKEMELVASITISGGSTYYADSVKGRFTISRDNAKNNVYLQMNSLKLEDTAVYFCAAETYAYLFHTYDYWGQGTHVTVSS | low polyreactivity |
| QVQLVESGGGLVQAGCSLRLSCASSGRIFYGNAMGWYRQAPGKERELVAAISKSGASTYYADSVKGRFTISRDNAKNTVYLQMNSLKPEDTAVYYCAAETPRRKYNYWGQGSQVTVSS | high polyreactivity |
